# ± gives the uncertainty stated by the source.
# Assay: self-splicing fitness, log relative to wild type (ln ratio); higher = more splicing; Tetrahymena group I intron in knt gene, E. coli kanamycin selection, DiMSum; sequences stand for … in CUCUCU…GGAGGGAAAAGUUAUCAGGCAUGCACCUGGUAGCUAGUCUUUAAACCAAUAGAUUGCAUCGGUUUAAAAGGCAAGACCGUCAAAUUGCGGGAAAGGGGUCAACAGCCGUUCAGUACCAAGUCUCAGGGGAAACUUUGAGAUGGCCUUGCAAAGGGUAUGGUAAUAAGCUGACGGACAUGGUCCUAACCACGCAGCCAAGUCCUAAGUCAACAGAUCUUCUGUUGAUAUGGAUGCAGUUCACAGACUAAAUGUCGGUCGGGGAAGAUGUAUUCUUCUCAUAAGAUAUAGUCGGACCUCUCCUUAAUGGGAGCUAGCGGAUGAAGUGAUGCAACACUGGAGCCGCUGGGAACUAAUUUGUAUGCGAAAGUAUAUUGAUUAGUUUUGGAGUACUCGUGGUCG
# Method in brief: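 Pooled colonies went to amplicon sequencing on an Illumina HiSeq 2500 after six replicate transformations. The plates were LB agar with 100 μg/mL carbenicillin, 50 μM IPTG and 0.2% rhamnose, with or without 25 μg/mL kanamycin, incubated overnight at 37°C or 30°C. The E. coli BL21(DE3) library had all eight P1ex-region intron nucleotides randomised, the intron placed in the knt kanamycin-resistance gene on pET-22b(+). DiMSum fitness is the error-weighted combination of replicate fold changes, kanamycin against none, normalised to wild type.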
Sequence,self-splicing fitness (ln) (30 °C),self-splicing fitness (ln) (37 °C)
CGGCAGCAAUAUUACGGAAC,-2.88 ± 0.16,-3.76 ± 0.33
UCUAAGCAAUAUUACGCGGA,-2.69 ± 0.3,-2.47 ± 0.24
CAUUAGCAAUAUUACGUAUG,-3.57 ± 0.2,-2.9 ± 0.3
ACCGAGCAAUAUUACGCUCU,-0.43 ± 0.14,-1.25 ± 0.16
UCGCAGCAAUAUUACGGGUU,-2.63 ± 0.14,-2.38 ± 0.16
ACCCAGCAAUAUUACGAGCC,-3.18 ± 0.15,-1.54 ± 0.14
UCCAAGCAAUAUUACGAAUG,-4.26 ± 0.21,-2.95 ± 0.2
UCUUAGCAAUAUUACGGUCA,-1.71 ± 0.16,-0.613 ± 0.16
AAGUAGCAAUAUUACGAUGA,-0.567 ± 0.14,-0.511 ± 0.15
CACAAGCAAUAUUACGCCAC,,-1.43 ± 0.43
AGAAAGCAAUAUUACGUCUC,-2.56 ± 0.43,
UGAGAGCAAUAUUACGAUUU,-2.34 ± 0.17,-2.26 ± 0.27
AAAUAGCAAUAUUACGGGAC,-3.19 ± 0.29,-1.57 ± 0.24
UCGAAGCAAUAUUACGCUGU,-2.33 ± 0.21,-2.06 ± 0.33
CGCUAGCAAUAUUACGUCUU,,-0.855 ± 0.16
UUCAAGCAAUAUUACGGCCA,-1.31 ± 0.13,-0.977 ± 0.13
ACUAAGCAAUAUUACGUCUA,-1.45 ± 0.13,-0.981 ± 0.12
ACUCAGCAAUAUUACGUACC,-1.39 ± 0.09,0.482 ± 0.13
GAUUAGCAAUAUUACGGGUU,-2.59 ± 0.16,-1.14 ± 0.15
AUUCAGCAAUAUUACGUCCU,-1.05 ± 0.066,-0.0115 ± 0.11

Sequence,self-splicing fitness (ln) (30 °C),self-splicing fitness (ln) (37 °C)
GCCCAGCAAUAUUACGUUUC,-1.36 ± 0.078,-1.37 ± 0.1
CAUUAGCAAUAUUACGACAA,-2.37 ± 0.24,-2.09 ± 0.32
GGCUAGCAAUAUUACGUCUA,-0.349 ± 0.13,-0.105 ± 0.11
AUGUAGCAAUAUUACGUUUU,-2.64 ± 0.074,-1.8 ± 0.1
CGAAAGCAAUAUUACGGACU,-0.69 ± 0.053,0.357 ± 0.079
UAGCAGCAAUAUUACGGCGC,-2.08 ± 0.23,0.611 ± 0.23
GGCAAGCAAUAUUACGCUGU,-4.24 ± 0.23,-2.05 ± 0.2
UCAAAGCAAUAUUACGGAUG,-2.78 ± 0.08,-1.32 ± 0.086
GCGCAGCAAUAUUACGCGUA,-1.14 ± 0.082,-1.39 ± 0.083
CCGCAGCAAUAUUACGCUCU,-4.04 ± 0.42,-2.18 ± 0.2
ACCGAGCAAUAUUACGAGAA,,-1.8 ± 0.29
GAUUAGCAAUAUUACGCCAG,-2.17 ± 0.32,-0.806 ± 0.34
CGGUAGCAAUAUUACGAUGG,-0.774 ± 0.1,0.646 ± 0.14
UAUUAGCAAUAUUACGGUUA,0.108 ± 0.097,-0.239 ± 0.11
ACCAAGCAAUAUUACGUCAC,-3.68 ± 0.47,-2.89 ± 0.27
GUAAAGCAAUAUUACGAAUC,-1.71 ± 0.14,-0.902 ± 0.14
UGCCAGCAAUAUUACGUCUA,-0.347 ± 0.081,-0.671 ± 0.089
UAAGAGCAAUAUUACGCCUU,-3.87 ± 0.25,-2.89 ± 0.48
AUAAAGCAAUAUUACGAACG,-0.309 ± 0.082,-0.0989 ± 0.11
